Biological target: T1, Smc4 (S. cerevisiae, UniProt Q12267 1-1418)
T1 sequence (looked up): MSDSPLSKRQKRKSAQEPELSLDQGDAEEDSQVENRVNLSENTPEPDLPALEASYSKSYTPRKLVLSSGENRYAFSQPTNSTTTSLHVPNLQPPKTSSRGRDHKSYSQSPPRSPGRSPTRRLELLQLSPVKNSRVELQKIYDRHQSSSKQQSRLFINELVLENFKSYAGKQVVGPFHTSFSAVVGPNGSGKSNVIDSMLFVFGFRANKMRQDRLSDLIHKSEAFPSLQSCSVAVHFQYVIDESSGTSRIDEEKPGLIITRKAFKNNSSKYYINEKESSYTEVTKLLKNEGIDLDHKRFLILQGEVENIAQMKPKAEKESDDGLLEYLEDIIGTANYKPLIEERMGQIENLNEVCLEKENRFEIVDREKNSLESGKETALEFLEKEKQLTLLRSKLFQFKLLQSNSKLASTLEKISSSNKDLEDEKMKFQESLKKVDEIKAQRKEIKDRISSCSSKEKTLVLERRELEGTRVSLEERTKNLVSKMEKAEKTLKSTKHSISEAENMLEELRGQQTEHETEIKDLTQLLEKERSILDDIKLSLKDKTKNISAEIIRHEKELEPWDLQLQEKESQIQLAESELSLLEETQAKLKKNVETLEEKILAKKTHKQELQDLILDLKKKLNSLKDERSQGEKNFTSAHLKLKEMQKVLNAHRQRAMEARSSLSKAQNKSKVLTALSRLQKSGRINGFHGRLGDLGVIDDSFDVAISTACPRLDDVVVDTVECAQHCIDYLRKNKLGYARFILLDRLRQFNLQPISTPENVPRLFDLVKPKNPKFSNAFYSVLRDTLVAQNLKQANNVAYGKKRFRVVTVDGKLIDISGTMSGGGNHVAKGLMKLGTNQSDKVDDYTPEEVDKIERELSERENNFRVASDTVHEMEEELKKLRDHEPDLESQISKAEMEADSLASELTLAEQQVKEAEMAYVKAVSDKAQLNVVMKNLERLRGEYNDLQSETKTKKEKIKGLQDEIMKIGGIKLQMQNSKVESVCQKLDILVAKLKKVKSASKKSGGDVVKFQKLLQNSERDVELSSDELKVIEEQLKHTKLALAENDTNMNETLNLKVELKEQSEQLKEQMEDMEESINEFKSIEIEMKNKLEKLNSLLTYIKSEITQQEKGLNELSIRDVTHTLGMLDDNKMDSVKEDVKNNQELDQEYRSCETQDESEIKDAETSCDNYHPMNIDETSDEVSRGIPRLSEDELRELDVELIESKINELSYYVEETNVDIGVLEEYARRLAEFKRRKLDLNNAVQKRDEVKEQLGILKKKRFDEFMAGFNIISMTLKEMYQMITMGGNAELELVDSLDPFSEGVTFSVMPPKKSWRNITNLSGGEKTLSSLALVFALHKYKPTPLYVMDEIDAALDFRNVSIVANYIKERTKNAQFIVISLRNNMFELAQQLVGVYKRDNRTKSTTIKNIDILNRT
Assay: AFM imaging

binding result: binds
B1: Smc2 (natural protein, S. cerevisiae, UniProt P38989 1-1170, looked up)
chain: MKVEELIIDGFKSYATRTVITDWDPQFNAITGLNGSGKSNILDAICFVLGIASMSTVRASSLQDLIYKRGQAGVTKASVTIVFDNTDKSNSPIGFTNSPQISVTRQVVLGGTSKYLINGHRAPQQSVLQLFQSVQLNINNPNFLIMQGKITKVLNMKPSEILSLIEEAAGTKMFEDRREKAERTMSKKETKLQENRTLLTEEIEPKLEKLRNEKRMFLEFQSTQTDLEKTERIVVSYEYYNIKHKHTSIRETLENGETRMKMLNEFVKKTSEEIDSLNEDVEEIKLQKEKELHKEGTISKLENKENGLLNEISRLKTSLSIKVENLNDTTEKSKALESEIASSSAKLIEKKSAYANTEKDYKMVQEQLSKQRDLYKRKEELVSTLTTGISSTGAADGGYNAQLAKAKTELNEVSLAIKKSSMKMELLKKELLTIEPKLKEATKDNELNVKHVKQCQETCDKLRARLVEYGFDPSRIKDLKQREDKLKSHYYQTCKNSEYLKRRVTNLEFNYTKPYPNFEASFVHGVVGQLFQIDNDNIRYATALQTCAGGRLFNVVVQDSQTATQLLERGRLRKRVTIIPLDKIYTRPISSQVLDLAKKIAPGKVELAINLIRFDESITKAMEFIFGNSLICEDPETAKKITFHPKIRARSITLQGDVYDPEGTLSGGSRNTSESLLVDIQKYNQIQKQIETIQADLNHVTEELQTQYATSQKTKTIQSDLNLSLHKLDLAKRNLDANPSSQIIARNEEILRDIGECENEIKTKQMSLKKCQEEVSTIEKDMKEYDSDKGSKLNELKKELKLLAKELEEQESESERKYDLFQNLELETEQLSSELDSNKTLLHNHLKSIESLKLENSDLEGKIRGVEDDLVTVQTELNEEKKRLMDIDDELNELETLIKKKQDEKKSSELELQKLVHDLNKYKSNTNNMEKIIEDLRQKHEFLEDFDLVRNIVKQNEGIDLDTYRERSKQLNEKFQELRKKVNPNIMNMIENVEKKEAALKTMIKTIEKDKMKIQETISKLNEYKRETLVKTWEKVTLDFGNIFADLLPNSFAKLVPCEGKDVTQGLEVKVKLGNIWKESLIELSGGQRSLIALSLIMALLQFRPAPMYILDEVDAALDLSHTQNIGHLIKTRFKGSQFIVVSLKEGMFANANRVFRTRFQDGTSVVSIM

— paper doi:10.1101/2019.12.13.867358 (bioRxiv, 2019)
